# From the DeepSol protein solubility set
# Assay: soluble on expression in E. coli; label from the status in PepcDB or PDB records
row,Sequence,soluble on expression in E. coli
1,MGSDKIHHHHHHMEQATRTIYSEYAAYPETQGIIAVEKRQPRDSLTDQFDVLLLVITRDPSVEWTVKHYRLNTLRVSLHLVHEQVLSRWLILNANRRAVHWVSEGTIIFERNDYLTDLKKQLRNFPETERCLQMSLSFAKLLRRFQDGRNLFSRGNYYDAYTHVHHALHHLARLSVLEKGAHPEVVVWEQARLDDPDVYKLYEQLLLSEETLEQRIHLALIGLEHLLQSKVLSGGKYLFEVMRERDRPWTMHELMEESRLTELKVDLGSLVDFFIRKGLIRISYQRTKGLGVELVTYEPVV,not soluble
2,MGSDKIHHHHHHMEQINHQWLPHLSKEIVEDARGPEFDAYLVALEGWRRGLTLRWHTKDSEAFREIKTWFVDRPGKLFSLRLEEKTHYFFRTRGDKVTNEAVAIGADKEKTKEYLAKAGIPIPEGRRFVAEIEDDEIISYAAEIGYPLVVKPTDGSFGRGVVTNIEDEVTFAEQLRHVRHVLNYKDVIVERHVAGKDYRLYVVGDKVVAAIERIPANVVGNGKQTIQELIEAKNEERQKNPRLISCPIKLDQEMKNHLAIQGYGLDTIPEDGEMVFLTNKSNISIGGDPVDQLDSLPEEVKQLAVQALQAVPQLPHGAVDILYDDKQPVEEGAVVLELNPTAQIGSLVFPMKGIARDVPAAIIDYYFPETKGMNGQKSRFYFDFSDVLEPLVTKTASVTTVSAAPLGEVYGKKYTVTGDVQGIDYHRGLRKQAFERKLSGFVKNLENGNIEVIVMGTDPESVNDFKQAIFEDPERSDVVDVFEESWEEPVKVGFEVKADLKMQVDQLKKMKLELETVQKDLKEAERKNIKYKKSLTWRMTLPFRKTLDVLKYFKRK,not soluble
3,MGSDKIHHHHHHMEQTTQTQLVEIQQVVLRMSKYFVAFCEEHNLTCYFCGGGCIGAIRSQGFIPWDDDLDFFMPRPDYEKLKVLWPKYADTECYPLLVASKTYNDHNSFMTIRDAQTTFIKTYQDGLAIPHGIPIDIFPLDGAPKGNFQRKKQKIWALIYALFCSQVVPEKHGGILATGSRVLLNIFPSKKVRYHIWRFAEKRMTKYSFGSTPYVTELCVGPRYMGNIYHLEDFKSAIFVPFEDTKMPIPVGYKRYLTEVFGDYMQLPPEEDRQPHHEALIVDTKKSYTEYLKK,not soluble
4,MGSDKIHHHHHHMERFPYEKLPESELKELKELGRLCRGDILKMTYIANSGHPGGSMSSIDLYLTVFKYAKLRPVDDPARDRIVISHGHTSPGVYAAMARLGFVDLDEVLAGFRHPASVFEGHVTRGVGIIDWTTGNLGQGLSAGLGFALASRFTGKDYHVFVLMSDAEQAKGQVAEARRVAKKYGVTNLTVIIDYNDAQISGRARDVMPVNIKENYLADGWRVIEIDGHDYEQIYLALKEAVEDELNPVAIIAKTVMGKGVSFMENEVKYHGKPLNREELEKALAELGIENDVDVYIEKRKQLPVEKHKKVYKTYPIKIDTGEPITYTSPTDNRSAFGKAILDLVKKNVNNPETTPIVAVDCDLKGSVKLDLLDKEFPERLLEVGVQEHNAAAMAGALSAEGVITFFADFGVFGISETYNQHRLNAINGTNLKVVVTHCGLNVGEDGKTHHGLDYVSGPMNWYGFKVIVPGDPNQTDRVVRYAAKEYGNFVIAMGRSKLPIILDENGKPFFGEGYTFEYGKIDVVRKGDDAVIITYGSTLCEAVNAADELKKEGVNVAVLNVSCPVDLDIETLKMVDGKPVLVVEDHNVFTGLGSFLGTTLLENGIIPKKYVRVGVPEFAVSGSYTMLYKLYGLDKDGIISRLREML,not soluble
5,MGSDKIHHHHHHMERLQALEAWAARQLGQETVDIAPASADASFRRYFRVTAKGRDYIVMDAPPAHEDCGPFIAVARLFGDAGVHVPEVLAQDLDQGFLLLTDLGHTTYLSALNESTARELYLAANDALIRIQLASRPGVLPDYDRALLTRELMLFPEWYVAKHLGVELNAAQRATLDTVFERLLTNNLAQPQVYVHRDWHSRNLMVSDPNPGILDFQDAVFGPITYDLASIYRDAYIQWDEERQLDWVIRYWEKARAARLPVAADFGDFWRDFEWMGAQRHLKVLGIFARLYHRDGKDGYLKDMPLVMHYLRSVCGRYDELKPLLLLLDALQDRQPQAGYTF,not soluble
6,MGSDKIHHHHHHMERSWTINGRFLAQPLTGVQRYAFEIVRALDELIVNQPLLASRLKIELLVPRDAKVPSLRAISTRAIAIAPMHGHLWEQAALAAHVRGGLLSFCNTGPLSVRKQILCIHDVNTRTYPQSYSLPFRLLYRTLLPALGRRVAAVATVSRYSAGELVRHRICGPDKITVIPNGHEHAASWKPRHSQRTRAVAGRDTIVVIGSAIAHKNTGLIIGMAERLAAVGLRIAVVGMSDARVYRTSGRKESASNVTWLGRLSDEELAALLQDCLCLAFPSFIEGFGLPPLEAMAIGCPIVVSNRASLPEICGEAALYASPNDAEAWFDRFMRVRNMPDVRDEMIGIGRMQASNFQWKASASRYLDIMAVLDGMSKPSGGPVAVSIA,not soluble
7,MGSDKIHHHHHHMETPMTMSQVDAVVRDPASVVTAIESRFSCRAFSPDRPVSRQQVEEILRIARCAASSTNTQPWKVYVLQGDRRDALVAQVCAAHDATRADSSLTAEYGEVDGYYPSEWVSPYIDRRRHNGWTLYGHLGIGKGEKDKMHAQGQRNYRFFDAPVGLMFTIDRVMGRGSLIDYGMFLQTLMLAARALGLHTCPQAAWNNCAKIVLPFIGAGANEMLVCGMALGYADQSAPVNTYRTPRETVESFTRWI,not soluble
8,MGSDKIHHHHHHMETPRREAFRYHEVEQHVLRLIDSKQYPPGSRLPSLRAVARTLSASLATVCHAYEELERRGVVESRPRSGYYVRTLPSPLPVPHSAPAEEEEPREANRSRLIATVLEAVGNPQMAPFGVVSPDPSLLPGKKLGQILAELSRRNAEQCVAYETIAGNAEYRRQIAKRACEDGMPTRASEVVATTGAMEALYIALRVLTRPGDNVLIQSPTYYCFLQLLETLGLRAVEIPSDPKHGINPADLTKALSTFEVAACILSGNFNNPDGALTPDAAKREIVDILAARGIPLVDDDVSADLHFDAQRPASFKQYDKKGLVVFCSSFSKTIAPGYRAGWMLPGRFMEKALEVKATTNVCCATPTQAAVGEFMRLGLYDRQLKKLRSAFQTQICAMHECIGSAFPDGTRVTSPRGGGVLWVELPAAVNGVELFFKARARRVGIAPGSIFSTRDRFSNYIRLSCCGIWNPRMEEALRDLGRLARELT,not soluble
9,MGSDKIHHHHHHMEVKVGLAPMAGYTDSAFRTLAFEWGADFAFSEMVSAKGFLMNSQKTEELLPQPHERNVAVQIFGSEPNELSEAARILSEKYKWIDLNAGCPVRKVVKKGAGGALLKDLRHFRYIVRELRKSVSGKFSVKTRLGWEKNEVEEIYRILVEEGVDEVFIHTRTVVQSFTGRAEWKALSVLEKRIPTFVSGDIFTPEDAKRALEESGCDGLLVARGAIGRPWIFKQIKDFLRSGKYSEPSREEILRTFERHLELLIKTKGERKAVVEMRKFLAGYTKDLKGARRFREKVMKIEEVQILKEMFYNFIKEV,not soluble
10,MGSDKIHHHHHHMEVTRTDKAVTLTWNKEEVSEGTVVFVSSSPKLEANSEPVFKVTNDVDHYSYDTKDIPIYFFLETPNGYYAIVSERILPLESVFNFRDMGGYASKNGKHVKWGKLYRSSNLVNINENDAALLQKLHIKWICDLRSSSEVKAQPTPAIEGILNKHIPIGTAKNEETKLPVTNDTTIYEPLMGESYRVFVQSVEGFREIFTEVLEDAKAGLPFVFHCTAGKDRTGVLGALLLTLLDVPEKTIFDDYAITNRYQDDILQEMGGIVSLFSSGTEKIDLETFRPMAEARPEYLEIAFDEMKKQYGSVANYLEKGIGITATEKAAFQKEMLE,not soluble
11,MGSDKIHHHHHHMEWLEQLLGKEWSLVPAGGVTGDAYIAQNGQQKLFLKRNTSPFLAVLSAEGIVPKLLWTRRVTNGDVISAQKWLPGQKLEPEDMKLERVAKLLKKIHSSKALVQMIQRLGKQPLHAQELLQQLQLVLRGDIRDEETIQQGLQYLMDSLKDIEYNEFVVCHCDVNHNNWLLSDEDELFLIDWDGAVIADPALDLGMLLYWYIPRQEWSEWLGYYDIEMDESLLKRMRWYVIAQTILSIQWHTTKKQQAEAEYWHQYLQQLLASE,not soluble
12,MGSDKIHHHHHHMEYISLNRLGGAAGCPADAEAAARFRAALPEGCKGTFAVARRIAPVIIDFDLVMQEGAASVSLAKGLGLPVVPCIRRQVERARTDFPQRLQLELTNCCNNDCVMCPRHGGHFTRKPKHMDLDLVRRALDEIAQHYNYQLQLFHIGEPLLHPRIFEILDMLEDYPTLGRKWISSKGQELTPDIMRRVLTSKVDYFNYSLLAMTPATYARIVPNGDYATVRGNLERLADLKRDLGVQRPYLRAQMIEMDEALHEIDAFLDTWADRVDLLSVNRLETFSNRIDAKVTSAIKPRESIGPRACKRLERGDLYILSNGEVTVCDTDFNGELSLGNLNETTLAEMARGARYRQIIDSHERGDYSQIELCRHCEDWNL,not soluble
13,MGSDKIHHHHHHMEYQTRQWLEEALFDLLATKKSLHNISIAELSEHAQIARRTFYRYYHSKEQVLTNYLDRLIQDYIIELQTEKLTNFEDLVNLFFQYWSQYTESLKILQEANLLVLILQRYYDKLPAAYTTVMAPWHITNSDQRQISYDSRFIIGGLYSIFDEWLKTDHQTMPVNELVTTALNTIKRMKDS,not soluble
14,MGSDKIHHHHHHMFIETLNLSHFRNFSEVALSPSPKINIITGDNGSGKTSLLEAIYLLGFGRSFRPGGFRQLIKEGNSGFTVFCRSQDYAIGVRRSTDGEQSLRLNGANVQRMSDVARLVPVQLLTPESVDILLEGPGQRRQFIDWGVFHVEHSFYSDWVAYTQLLKQRNSLLKQRSLPVREDRYWKEQLAYYGERISKSREKYLEELNDYIQELAKSFLSDVTMEVRLKSGWDTSQSLFDALESHTEKDKKYGFTSVGAHKADIKVIADGVEVKHRLSRGQLKTAITALKLAQGKHYQKIKRQPCIYLVDDLTSELDSKNQALLCRELENLDAQVFITAITGKQLSDKFQKSPRMFHVEHGVINE,not soluble
15,MGSDKIHHHHHHMFLEPFFTQTDETVTISPFQASEFAKRVAEDFNPIHDESAKRFCVPGDLLFALVLSHYGLSQKMQFKFEGMVGEGVCLNFPVEVGDSFPICDSRDKTYLSVSRQGDVSRCETQIESFVRSYVSFSGLNFIHVLVPMMREHGVMINPDRPLVIYESMAFDLTTLDFDQVALELSDARLSVDGKRGDVTLEFALISDGKQVGTGVKTLVMSGLRALDEAALDGMAQFYEERRATL,not soluble
16,MGSDKIHHHHHHMFLSSMKLGIQSYSLRKLTYENALKVMSELGISYVEAFPRHLPPSSNSVKDIINLHKENGVKVIAHGVNHLKSDKKELRSIFDFANKVEIEVITADPDEDCLNLMSDLVKEYDIKVAIHNHGPYHRWGSYKKIYEFTKNLDYRVGMCLDLAHLFRYGENPIEAVNTLRDRIHDIHVKDVNNKGEDVIVGSGILDVKGVIGKVKELNLDIPLMIEYEPEPENPLPGIVKSLEYVKKLL,not soluble
17,MGSDKIHHHHHHMFNLTKAFLKEVPTNAEVTDFHEVHGGDINKAYSLTDAQGGRYFLKVQPNSVLAFFQHEADGLKLLGQAARVPKVIALGHVGQDQWLLLEYLNATNYGNQYSLGQDLAKIHSITSPNGQFGFDKDFKAGKTSKINTWQSSWYEFFVKQRLNVLRELLINEGKWNDDQNYKKAIEIFQSLMEKHDSRPSLLHGDFWSGNFMFDADSGQPIFIDPDVYYGDPEFDIGITTVFGGFNQDFYVGYQSTKPFQSGAERRLMFYQLYYLMVHAHLFAGSYIQAYRGKLAQIIQQ,not soluble
18,MGSDKIHHHHHHMFSRRFRRLSPRDIIGGDVTLRRPSVAEALAVASASFIASFYVSGETILLAAGLALGGLAIASSLPARAGRVFIAGIRLEFMIPGRIVEGEVRTGRLLVENRTLNPMVLKIILKPEEGLEVEPERAEVHAPPLSRRSISLVVKPRFGRYKLIASIEEARSPLGLWSLQPEQPQTAVEVLATPKPEVVSEDISVLTGPGSLDRGREGSGLDYRSFREYQPGDDPRSIEWKLTGRRGAPVVREVEGAESSKPVRLVLAIRPQHYRKPLYNSPYGAAARRLYTISMMLAEEGVRHSVLLPGARGFQELEISTPRDTLELGLALAIYTPEDPPIDYAYLIEDLARRDSPVIVVSPKGTLGEIVDKDRVYVLEV,not soluble
